Data reported in article PMC9482650, “Quantitative fragmentomics allow affinity mapping of interactomes” (Nature Communications, 2022).

Columns and labels:
Assay in all cases: holdup assay
Parameters in all cases: key: below the threshold = too weak to quantify, mostly under pKd 3.1 to 4
Conditions in all cases: plain residues with an end cap or a label only (N-terminal biotin on a linker: ttds)
[1] = molecular target: Q9Y3R0
[2] = molecular target: O60759
[3] = molecular target: Q9UMS6
[4] = molecular target: Q70Z35
[5] = molecular target: Q9C0E4
[6] = molecular target: Q13009
[7] = molecular target: Q9ULJ8
[8] = molecular target: Q8IUC4
[9] = molecular target: Q96SB3
[10] = molecular target: NHERF4_3, Q86UT5
NHERF4_3, Q86UT5, sequence (Q86UT5 325-412): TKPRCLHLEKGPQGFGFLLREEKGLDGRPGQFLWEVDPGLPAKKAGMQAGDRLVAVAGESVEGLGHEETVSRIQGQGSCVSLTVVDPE

[11] = molecular target: Q8TEW0
[12] = molecular target: Q96JY6
[13] = molecular target: Q96HC4
[14] = molecular target: O15021
[15] = molecular target: Q96FS4
[16] = molecular target: Q8TDM6
[17] = molecular target: Q8TB45
[18] = molecular target: Q96JB8
[19] = molecular target: O43166
[20] = molecular target: Q9NR12
[21] = molecular target: O75970
[22] = molecular target: Q9NPB6
[23] = molecular target: Q92614
[24] = molecular target: Q9H190
[25] = molecular target: O00233
[26] = molecular target: Q9P227
[27] = molecular target: Q6ZWJ1
[28] = molecular target: Q9UDY2
[29] = molecular target: Q5TCQ9

Measured: pKd

SVWLRKETRV [CYSLTR2, Q9NS75]
below the threshold: all assays above
